This is an account of results in US20020142359A1 (AstraZeneca / MedImmune, published 2002).

Changes are numbered by the printed parent chain. Numbers in names are those of the source.

The target of assay [1] is CEA on LS174T colo-rectal tumour cells (UniProt P06731). In words: cell-based or functional assay.
In assay [2] the target is T1, CEA (Carcinoembryonic antigen), purified antigen (UniProt P06731 35-685, limits assumed).
T1 construct: Purified CEA, 50 ng per well in the CEA ELISA; also called native CEA; untreated CEA
T1 sequence (looked up): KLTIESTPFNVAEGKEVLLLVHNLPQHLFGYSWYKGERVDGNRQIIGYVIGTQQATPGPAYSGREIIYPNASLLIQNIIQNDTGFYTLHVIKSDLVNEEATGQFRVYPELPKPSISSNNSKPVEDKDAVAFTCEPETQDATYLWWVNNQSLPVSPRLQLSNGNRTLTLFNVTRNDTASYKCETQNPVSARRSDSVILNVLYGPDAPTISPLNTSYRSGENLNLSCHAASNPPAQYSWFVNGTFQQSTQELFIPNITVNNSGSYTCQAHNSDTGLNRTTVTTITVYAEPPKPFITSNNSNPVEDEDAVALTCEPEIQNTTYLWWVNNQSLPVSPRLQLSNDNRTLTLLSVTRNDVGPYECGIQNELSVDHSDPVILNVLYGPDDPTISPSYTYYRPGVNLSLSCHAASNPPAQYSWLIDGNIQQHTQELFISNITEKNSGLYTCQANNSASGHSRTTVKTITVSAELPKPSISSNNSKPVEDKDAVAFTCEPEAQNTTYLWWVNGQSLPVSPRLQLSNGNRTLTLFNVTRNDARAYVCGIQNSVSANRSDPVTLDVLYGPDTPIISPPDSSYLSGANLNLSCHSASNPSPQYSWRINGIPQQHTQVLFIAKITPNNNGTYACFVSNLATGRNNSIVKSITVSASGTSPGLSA
Kind of assay: CEA ELISA on media from NS0 clones, detected with anti-human kappa peroxidase conjugate. On the technique in general: An ELISA detects its analyte on a solid surface through an enzyme-linked reagent.
From the text: Media from wells containing single viable clones was taken for testing and replaced with fresh media (containing G418).

The target in assay [3] is T1, CEA (Carcinoembryonic antigen), …. In words: CEA ELISA (50 ng CEA per well) on NS0 culture supernatants, detected with HRPO anti-human kappa. As to the method: (§1) For the CEA ELISA each well of a 96 well immunoplate (NUNC MAXISORB™) was coated with 50 ng CEA in 50 mM carbonate/bicarbonate coating buffer pH9.6 (buffer capsules—Sigma C3041) and incubated at 4° C. overnight. The plate was washed three times with PBS+0.05% Tween 20 and then blocked 150 μl per well of 1% BSA in PBS +0.05% Tween 20 for 1 hour at room temperature. The plate was washed as previously described, 100 μl of test sample added per well and incubated at room temperature for 2 hours. Again the plate was washed three times with PBS+0.05% Tween 20, 100 μl per well of a 1/500 dilution of HRPO-labelled goat anti-human kappa antibody (Sigma A 7164) was added, in 1% BSA in PBS-Tween 20 and incubated at room temperature on a rocking platform for at least 1 hour. The plate was washed as before and then once more with PBS. To detect binding add 100 μl per well developing solution (one capsule of phosphate-citrate buffer—Sigma P4922—dissolved in 100 mls H₂O to which is added one 30 mg tablet o-phenylenediamine dihydrochloride—Sigma P8412) and incubated for up to 15 minutes. The reaction was stopped by adding 75 μl 2M H₂SO₄, and absorbance read at 490 nm.

For assay [4] the target is unchanged. In words: CEA ELISA on NS0 culture supernatants (Example 39). The procedure:
as §1
(§2) As before, the human F(ab′)₂ antibody fragment was then purified from the culture supernatant as described in Example 102.

Assay [5] has the same target. In words: CEA ELISA on NS0 culture supernatants (Example 41). The procedure:
as §1, §2

The target is the same in assay [6]. Kind of assay: CEA ELISA on NS0 culture supernatants (Example 45). The procedure: as §1, §2
The target is the same in assay [7]. Kind of assay: CEA ELISA on NS0 culture supernatants (Example 43). As to the method: as §1, §2
Assay [8] shares this target. In words: CEA ELISA on NS0 culture supernatants (Example 47). The procedure: as §1, §2
Assay [9] has the same target. Kind of assay: CEA ELISA on NS0 culture supernatants (Example 14). The procedure:
as §1

Assay [10] has the same target. Kind of assay: CEA ELISA on NS0 culture supernatants (Example 42). The procedure:
as §1, §2

Assay [11] has the same target. In words: EIA of hybridoma supernatants against native CEA; line 806.077 was cloned from one of the positive wells.

On to “human B7.1-murine A5B7 F(ab')2 fusion protein (AB7)”, for which, in assay [1], the [3H] thymidine incorporation by T cells on anti-CD3 coated wells (T cells + LS174T/fusion protein) amounted to 41800 cpm; the [3H] thymidine uptake, fold over no co-stimulation was over 11 fold; the [3H] thymidine uptake, fold over tumour cells alone is over 3 fold.

B1: pro-[A248S,G251T,D253K]HCPB-linker-F(ab')2(humanised 806.077) (other)
heavy: HHGGEHFEGEKVFRVNVEDENHINIIRELASTTQIDFWKPDSVTQIKPHSTVDFRVKAEDTVTVENVLKQNELQYKVLISNLRNVVEAQFDSRVRATGHSYEKYNKWETIEAWTQQVATENPALISRSVIGTTFEGRAIYLLKVGKAGQNKPAIFMDCGFHAREWISPAFCQWFVREAVRTYGREIQVTELLDKLDFYVLPVLNIDGYIYTWTKSRFWRKTRSTHTGSSCIGTDPNRNFDAGWCEIGASRNPCDETYCGPAAESEKETKALADFIRNKLSSIKAYLTIHSYSQMMIYPYSYAYKLGENNAELNALAKATVKELASLHGTKYTYGPGATTIYPSAGTSKDWAYDQGIRYSFTFELRDTGRYGFLLPESQIRATCEETFLAIKYVASYVLEHLYGGGSGGGSGGGSEVQLQQSGPGLVRPSQTLSLTCTASGFNIKDNYMHWVRQPPGRGLEWIGWIDPENGDTEYAPKFRGRVTMLADTSKNQFSLRLSSVTAADTAVYYCHVLIYAGYLAMDYWGQGTLVTVSSASTKGPSVFPLAPCSRSTSGGTAALGCLVKDYFPEPVTVSWNSGALTSGVHTFPAVLQSSGLYSLSSVVTVPSSSLGTQTYTCNVNHKPSNTKVDKRVELKTPLGDTTHTCPRCPEPKSCDTPPPCPRCPEPKSCDTPPPCPRCPEPKSCDTPPPCPRCPAPELLGG
light: DIQMTQSPSSLSASVGDRVTITCSASSSVTYMHWYQQKPGKAPKLWIYSTSNLASGVPSRFSGSGSGTDYTFTISSLQPEDIATYYCQQRSTYPLTFGQGTKLEIKRTVAAPSVFIFPPSDEQLKSGTASVVCLLNNFYPREAKVQWKVDNALQSGNSQESVTEQDSKDSTYSLSSTLTLSKADYEKHKVYACEVTHQGLSSPVTKSFNRGEC
notes: Antibody-enzyme fusion secreted by NS0 cells
For the molecule B1, the binding result in assay [2] is listed as “binds”.

B2: humanised 806.077 HuVH1/HuVK1 HuIgG2 F(ab')2 (Initial humanised antibody) (antibody, V domains shown)
VH: EVQLQQSGPGLVRPSQTLSLTCTASGFNIKDNYMHWVRQPPGRGLEWIGWIDPENGDTEYAPKFRGRVTMLADTSKNQFSLRLSSVTAADTAVYYCHVLIYAGYLAMDYWGQGTLVTVSS
VL: DIQMTQSPSSLSASVGDRVTITCSASSSVTYMHWYQQKPGKAPKLLIYSTSNLASGVPSRFSGSGSGTDYTFTISSLQPEDIATYYCQQRSTYPLTFGQGTKLEIKR
notes: F(ab')2 fragment secreted by NS0 cells and tested as culture supernatant
With B2, the binding result in assay [3] is “binds”.

B3: humanised 806.077 HuVH1/HuVK1 HuIgG1 F(ab')2 (antibody, V domains shown)
VH: B2 VH
VL: B2 VL
notes: F(ab')2 fragment from NS0 supernatant; also called HuVH1-HuIgG1 + HuVK1-HuCK
Consider B3, for which the binding result in [4] is recorded as “binds”.

B4: humanised 806.077 HuVH1/HuVK1 HuIgG3 F(ab')2 (antibody, V domains shown)
VH: B2 VH
VL: B2 VL
notes: F(ab')2 fragment from NS0 supernatant; also called HuVH1-HuIgG3 + HuVK1-HuCK
For the molecule B4, the binding result in assay [5] was “binds”.

B5: humanised 806.077 HuVH1/HuVK4 HuIgG1 F(ab')2 (antibody, V domains shown)
VH: B2 VH
VL: B2 VL with L46W
notes: F(ab')2 fragment from NS0 supernatant; also called HuVH1-HuIgG1 + HuVK4-HuCK
For B5, the binding result in assay [6] is “binds”.

B6: humanised 806.077 HuVH1/HuVK3 HuIgG2 F(ab')2 (antibody, V domains shown)
VH: B2 VH
VL: B2 VL with D1Q, Q3V, M4L
notes: F(ab')2 fragment from NS0 supernatant
For the molecule B6, in assay [7], the binding result is on record as “binds”.

B7: humanised 806.077 HuVH1/HuVK4 HuIgG3 F(ab')2 (antibody, V domains shown)
VH: B2 VH
VL: B2 VL with L46W
notes: F(ab')2 fragment from NS0 supernatant; also called HuVH1-HuIgG3 + HuVK4-HuCK
For the molecule B7, in assay [8], the binding result was “binds”.

B8: humanised 806.077 HuVH1/HuVK4 HuIgG2 F(ab')2 (antibody, V domains shown)
VH: B2 VH
VL: B2 VL with L46W
notes: as for B6
Turning to B8, the binding result in assay [9] was “binds”.

B9: humanised 806.077 HuVH1/HuVK3 HuIgG1 F(ab')2 (antibody, V domains shown)
VH: B2 VH
VL: B2 VL with D1Q, Q3V, M4L
notes: F(ab')2 fragment from NS0 supernatant; also called HuVH1-HuIgG1 + HuVK3-HuCK
With B9, the binding result in assay [10] was “binds”.

B10: 806.077 antibody (antibody, V domains shown)
VH: EVQLQQSGAELVRSGASVKLSCTASGFNIKDNYMHWVKQRPEQGLEWIAWIDPENGDTEYAPKFRGKATLTADSSSNTAYLHLSSLTSEDTAVYYCHVLIYAGYLAMDYWGQGTSVAVSS
VL: DIELTQSPAIMSASPGEKVTITCSASSSVTYMHWFQQKPGTSPKLWIYSTSNLASGVPARFSGSGSGTSYSLTISRMEAEDAATYYCQQRSTYPLTFGAGTKLELKR
notes: The cDNA primers hybridise to murine IgG1 CH1 and murine kappa constant regions
Take B10: the binding result in [11] is reported as “binds”.
